Measurements reported in article PMC9482650, “Quantitative fragmentomics allow affinity mapping of interactomes” (Nature Communications, 2022).

Tests used:
Assay in all cases: holdup assay
Design in all cases: key: below the threshold = too weak to quantify, mostly under pKd 3.1 to 4
Conditions in all cases: plain residues with an end cap or a label only (N-terminal biotin on a linker: ado-ado)
[1] = biological target: MAGI3_2, Q5TCQ9
[2] = biological target: DLG4_1, P78352
[3] = biological target: FRMPD2_2, Q68DX3
[4] = biological target: NHERF4_1, Q86UT5-2
[5] = biological target: LDB3, O75112
[6] = biological target: MAGI2_4, Q86UL8
[7] = biological target: DLG2_3, Q15700
[8] = biological target: T1, APBA1_1, Q02410
T1 sequence (Q02410 651-752, limits assumed, looked up): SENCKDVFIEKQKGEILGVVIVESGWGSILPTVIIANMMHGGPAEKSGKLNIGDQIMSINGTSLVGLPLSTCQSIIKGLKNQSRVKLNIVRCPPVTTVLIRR

[9] = biological target: PDLIM1, O00151
[10] = biological target: Inadl_8, Q8NI35
[11] = biological target: MAGI2_3, Q86UL8
[12] = biological target: T2, SHANK1, Q9Y566
T2 sequence (Q9Y566 658-767, limits assumed, looked up): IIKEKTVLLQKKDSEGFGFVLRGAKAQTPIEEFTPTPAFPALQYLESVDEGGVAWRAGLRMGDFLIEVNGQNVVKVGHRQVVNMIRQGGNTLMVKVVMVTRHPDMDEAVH

[13] = biological target: NHERF4_2, Q86UT5
[14] = biological target: T3, ARHGAP21, Q5T5U3
T3 sequence (Q5T5U3 45-169, limits assumed, looked up): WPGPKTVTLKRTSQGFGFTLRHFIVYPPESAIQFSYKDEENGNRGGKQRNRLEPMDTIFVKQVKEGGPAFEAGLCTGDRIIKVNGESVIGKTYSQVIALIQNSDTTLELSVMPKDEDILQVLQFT

[15] = biological target: T4, LNX2_3, Q8N448
T4 sequence (Q8N448 463-564, limits assumed, looked up): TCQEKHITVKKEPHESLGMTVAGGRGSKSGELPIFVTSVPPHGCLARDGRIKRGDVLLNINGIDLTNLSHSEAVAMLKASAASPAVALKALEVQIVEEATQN

[16] = biological target: T5, TJP3_3, O95049
T5 sequence (O95049 375-456, limits assumed, looked up): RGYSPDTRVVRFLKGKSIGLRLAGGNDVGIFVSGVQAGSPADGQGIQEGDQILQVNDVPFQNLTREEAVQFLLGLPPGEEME

[17] = biological target: T6, LRRC7, Q96NW7
T6 sequence (Q96NW7 1440-1537, limits assumed, looked up): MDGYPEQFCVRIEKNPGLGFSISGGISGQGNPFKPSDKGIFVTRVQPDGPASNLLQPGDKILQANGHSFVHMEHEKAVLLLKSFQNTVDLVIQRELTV

[18] = biological target: GRID2IP_1, A4D2P6
[19] = biological target: PTPN3, P26045
[20] = biological target: Inadl_2, Q8NI35
[21] = biological target: T7, APBA1_2, Q02410
T7 sequence (Q02410 742-832, limits assumed, looked up): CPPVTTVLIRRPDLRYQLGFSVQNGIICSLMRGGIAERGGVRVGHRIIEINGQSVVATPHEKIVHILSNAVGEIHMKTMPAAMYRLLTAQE

[22] = biological target: T8, ARHGEF11, O15085
T8 sequence (O15085 42-136, limits assumed, looked up): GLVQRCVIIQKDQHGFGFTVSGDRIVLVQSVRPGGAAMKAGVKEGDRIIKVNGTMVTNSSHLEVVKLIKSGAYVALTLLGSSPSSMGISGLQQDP

[23] = biological target: SCRIB_2, Q14160
[24] = biological target: T9, RAPGEF6, Q8TEU7
T9 sequence (Q8TEU7 525-625, limits assumed, looked up): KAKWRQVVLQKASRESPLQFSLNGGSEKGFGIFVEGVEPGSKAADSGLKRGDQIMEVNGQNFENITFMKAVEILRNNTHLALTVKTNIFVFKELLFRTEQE

[25] = biological target: Inadl_4, Q8NI35
[26] = biological target: PARD3_3, Q8TEW0
[27] = biological target: T10, LIN7C, Q9NUP9
T10 sequence (Q9NUP9 88-185, limits assumed, looked up): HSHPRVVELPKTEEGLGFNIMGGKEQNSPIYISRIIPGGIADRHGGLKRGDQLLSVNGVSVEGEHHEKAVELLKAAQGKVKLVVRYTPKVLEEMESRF

[28] = biological target: FRMPD2_1, Q68DX3
Chain of FRMPD2_1, Q68DX3 (Q68DX3 770-861): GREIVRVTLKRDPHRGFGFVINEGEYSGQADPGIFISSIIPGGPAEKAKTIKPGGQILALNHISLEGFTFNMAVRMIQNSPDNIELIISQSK

Chain of PDLIM1, O00151 (O00151 1-87): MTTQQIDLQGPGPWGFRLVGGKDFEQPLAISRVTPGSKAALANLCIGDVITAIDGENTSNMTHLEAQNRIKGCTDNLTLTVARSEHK
Chain of NHERF4_1, Q86UT5-2 (Q86UT5 other isoform, or with tags, fused parts or gaps): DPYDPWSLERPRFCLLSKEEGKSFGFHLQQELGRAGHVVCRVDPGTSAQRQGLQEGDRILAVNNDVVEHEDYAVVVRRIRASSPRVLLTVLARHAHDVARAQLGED
Chain of PARD3_3, Q8TEW0 (Q8TEW0 582-685): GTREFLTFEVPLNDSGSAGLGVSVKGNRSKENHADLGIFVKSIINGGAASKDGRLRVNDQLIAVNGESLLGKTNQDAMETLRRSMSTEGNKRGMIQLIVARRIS
Chain of GRID2IP_1, A4D2P6 (A4D2P6 1-87): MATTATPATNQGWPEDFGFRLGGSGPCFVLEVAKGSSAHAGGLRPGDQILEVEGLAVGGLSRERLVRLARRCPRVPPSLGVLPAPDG
Chain of MAGI3_2, Q5TCQ9 (Q5TCQ9 398-503): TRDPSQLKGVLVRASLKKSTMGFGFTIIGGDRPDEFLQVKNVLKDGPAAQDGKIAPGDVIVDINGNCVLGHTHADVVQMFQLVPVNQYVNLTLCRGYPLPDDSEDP
Chain of MAGI2_3, Q86UL8 (Q86UL8 600-682): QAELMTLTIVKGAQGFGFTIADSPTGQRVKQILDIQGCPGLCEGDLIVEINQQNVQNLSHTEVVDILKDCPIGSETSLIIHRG
Chain of FRMPD2_2, Q68DX3 (Q68DX3 944-1038): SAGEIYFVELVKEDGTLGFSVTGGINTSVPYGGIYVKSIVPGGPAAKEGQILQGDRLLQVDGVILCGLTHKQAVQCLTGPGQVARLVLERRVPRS
Chain of LDB3, O75112 (O75112 1-94): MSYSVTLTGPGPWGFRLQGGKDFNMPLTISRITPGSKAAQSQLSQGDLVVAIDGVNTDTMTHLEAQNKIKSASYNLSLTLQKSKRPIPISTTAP
Chain of SCRIB_2, Q14160 (Q14160 857-960): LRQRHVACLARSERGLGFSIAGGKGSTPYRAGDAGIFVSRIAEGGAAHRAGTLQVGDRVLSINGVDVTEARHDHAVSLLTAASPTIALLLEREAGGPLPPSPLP
Chain of DLG4_1, P78352 (P78352 62-152): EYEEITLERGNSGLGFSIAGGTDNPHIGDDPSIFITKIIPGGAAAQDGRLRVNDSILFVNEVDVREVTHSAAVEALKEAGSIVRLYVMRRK
Chain of Inadl_4, Q8NI35 (Q8NI35 547-651): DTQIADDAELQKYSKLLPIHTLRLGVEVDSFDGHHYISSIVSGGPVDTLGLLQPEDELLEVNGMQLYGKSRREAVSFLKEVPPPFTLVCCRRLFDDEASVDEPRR
Chain of Inadl_8, Q8NI35 (Q8NI35 1425-1530): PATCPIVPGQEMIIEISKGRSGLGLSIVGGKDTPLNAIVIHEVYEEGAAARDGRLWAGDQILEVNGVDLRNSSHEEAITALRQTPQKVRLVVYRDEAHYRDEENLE
Chain of NHERF4_2, Q86UT5 (Q86UT5 220-308): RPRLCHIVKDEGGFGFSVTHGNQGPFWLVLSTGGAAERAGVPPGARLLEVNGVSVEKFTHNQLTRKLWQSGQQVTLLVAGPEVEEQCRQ
Chain of Inadl_2, Q8NI35 (Q8NI35 238-335): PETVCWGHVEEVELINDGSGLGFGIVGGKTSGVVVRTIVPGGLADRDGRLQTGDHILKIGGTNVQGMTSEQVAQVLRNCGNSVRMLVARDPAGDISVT
Chain of MAGI2_4, Q86UL8 (Q86UL8 772-865): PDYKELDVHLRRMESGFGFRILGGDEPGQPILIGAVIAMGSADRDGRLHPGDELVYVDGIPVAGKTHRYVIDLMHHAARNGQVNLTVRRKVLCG
Chain of PTPN3, P26045 (P26045 505-587): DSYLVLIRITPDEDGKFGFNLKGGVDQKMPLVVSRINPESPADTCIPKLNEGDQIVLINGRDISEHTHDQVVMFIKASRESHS

AKADAQESRL [PLCB2, Q00722]
pKd [1]: below the threshold
pKd [2]: below the threshold
pKd [3]: below the threshold
pKd [4]: 3.84
pKd [5]: below the threshold
pKd [6]: below the threshold
pKd [7]: below the threshold
pKd [8]: below the threshold
pKd [9]: below the threshold
pKd [10]: below the threshold
pKd [11]: 3.51
pKd [12]: 4.33
pKd [13]: below the threshold
pKd [14]: below the threshold
pKd [15]: below the threshold
pKd [16]: below the threshold
pKd [17]: below the threshold
pKd [18]: below the threshold
pKd [19]: 4.74
pKd [20]: below the threshold
pKd [21]: below the threshold
pKd [22]: 3.66
pKd [23]: below the threshold
pKd [24]: below the threshold
pKd [25]: below the threshold
pKd [26]: 3.48
pKd [27]: 4.28
pKd [28]: below the threshold

TNSKQGETTV [FZD1, Q9UP38]
pKd [1]: 4.94
pKd [2]: 4.7
pKd [3]: below the threshold
pKd [4]: below the threshold
pKd [5]: below the threshold
pKd [6]: 4.13
pKd [7]: 3.77
pKd [8]: below the threshold
pKd [9]: below the threshold
pKd [10]: below the threshold
pKd [11]: 3.83
pKd [12]: 3.57
pKd [13]: below the threshold
pKd [14]: 3.93
pKd [15]: below the threshold
pKd [16]: below the threshold
pKd [17]: below the threshold
pKd [18]: 3.66
pKd [19]: 4.79
pKd [20]: below the threshold
pKd [21]: 3.74
pKd [22]: 4.25
pKd [23]: 4.01
pKd [24]: 3.54
pKd [25]: below the threshold
pKd [26]: 3.58
pKd [27]: 4.45
pKd [28]: 3.79

IQISELETNV [SLC1A7, O00341]
pKd [1]: 4.28
pKd [2]: 4.44
pKd [3]: 5.03
pKd [4]: below the threshold
pKd [5]: below the threshold
pKd [6]: 3.56
pKd [7]: below the threshold
pKd [8]: below the threshold
pKd [9]: below the threshold
pKd [10]: below the threshold
pKd [11]: 3.96
pKd [12]: 3.94
pKd [13]: below the threshold
pKd [14]: 3.98
pKd [15]: below the threshold
pKd [16]: below the threshold
pKd [17]: below the threshold
pKd [18]: below the threshold
pKd [19]: 4.84
pKd [20]: below the threshold
pKd [21]: 3.83
pKd [22]: 3.94
pKd [23]: 4.16
pKd [24]: below the threshold
pKd [25]: below the threshold
pKd [26]: 3.68
pKd [27]: 3.97
pKd [28]: below the threshold

TFSRRPKTRV [CD226, Q15762]
pKd [1]: 5.24
pKd [2]: 3.62
pKd [3]: below the threshold
pKd [4]: below the threshold
pKd [5]: below the threshold
pKd [6]: below the threshold
pKd [7]: 3.88
pKd [8]: below the threshold
pKd [9]: below the threshold
pKd [10]: 4.6
pKd [11]: below the threshold
pKd [12]: 4.06
pKd [13]: below the threshold
pKd [14]: 4.06
pKd [15]: 3.61
pKd [16]: below the threshold
pKd [17]: below the threshold
pKd [18]: below the threshold
pKd [19]: below the threshold
pKd [20]: below the threshold
pKd [21]: 3.48
pKd [22]: 4.06
pKd [23]: 3.54
pKd [24]: below the threshold
pKd [25]: below the threshold
pKd [26]: below the threshold
pKd [27]: below the threshold
pKd [28]: 3.73

KSRPENGTVC [TMEM178B, H3BS89]
pKd [1]: below the threshold
pKd [2]: below the threshold
pKd [3]: below the threshold
pKd [4]: below the threshold
pKd [5]: below the threshold
pKd [6]: 3.74
pKd [7]: below the threshold
pKd [8]: below the threshold
pKd [9]: below the threshold
pKd [10]: below the threshold
pKd [11]: below the threshold
pKd [12]: below the threshold
pKd [13]: below the threshold
pKd [14]: 4.14
pKd [15]: below the threshold
pKd [16]: below the threshold
pKd [17]: below the threshold
pKd [18]: below the threshold
pKd [19]: 3.77
pKd [20]: below the threshold
pKd [21]: below the threshold
pKd [22]: 3.89
pKd [23]: below the threshold
pKd [24]: below the threshold
pKd [25]: below the threshold
pKd [26]: below the threshold
pKd [27]: below the threshold
pKd [28]: below the threshold
